This note sets out measurements from patent EP2450379B1 (Crucell Holland B.V., dated 2015).

Assay [1] concerns the target T1, soluble recombinant HA (sHA) of H5N1TV (influenza A virus A/Vietnam/1194/2004 …, UniProt Q6J8F6 17-528). As to the kind of experiment: immunoblot, reducing SDS-PAGE.
Assay [2] has as its target T1, soluble recombinant HA (sHA) of H5N1TV. As to the kind of experiment: immunoblot (data not shown). A general note: In western blotting, separated proteins are transferred to a membrane and probed.

B1: CR6323 (antibody, V domains shown)
VH: EVQLVESGAEVKKPGSSVKVSCKASGGTFSSYGISWVRQAPGQGLEWMGDIIGMFGSTNYAQNFQGRLTITADESTSTAYMELSSLRSEDTAVYYCARSSGYYPAYLPHWGQGTLVTVSS
VL: not shown
notes: human IgG1
Turning to B1, in assay [1], the binding result was “binds”.

B2: CR6296 (antibody, V domains shown)
VH: EVQLVETGAEVKKPGASVKVSCKASGYTFTSYYMHWVRQAPGQGLEWMGWINPNSGGTNYAQKFQGRVTMTRDTSISTAYMELSRLRSDDTAVYYCAREGKWGPQAAFDIWGQGTMVTVSS
VL: EIVMTQSPGTLSLSPGERATLSCRASQSVSSSYLAWYQQKPGQAPRLLIYDASSRATDIPDRFSGSGSGTDFTLTISRLEPEDFAVYYCQQYGSSLWTFGQGTKVEIKR
notes: human IgG1
With B2, in assay [2], the binding result is recorded as “binds”.

B3: CR6141 (antibody, V domains shown)
VH: EVQLVQSGAEVKKPGASVKVSCKASGYTFTGYYVYWVRQAPGQGLEWMGWISAYNGNTNYAQKFQGRVTITADKSTSTAYMELSSLRSEDTAVYYCARSRSLDVWGQGTTVTVSS
VL: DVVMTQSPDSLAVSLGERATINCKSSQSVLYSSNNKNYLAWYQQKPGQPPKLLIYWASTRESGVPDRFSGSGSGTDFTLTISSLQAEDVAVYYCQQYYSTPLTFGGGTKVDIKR
notes: human IgG1
For the molecule B3, the binding result in assay [2] is recorded as “binds”.

B4: CR6301 (antibody, V domains shown)
VH: EVQLVESGGGLVQPGGSLRLSCAASGFTFSIYAMSWVRQAPGKGLEWVSAISSSGDSTYYADSVKGRFTISRDNARNTLYLQMNSLRAEDTAVYYCARAYGYTFDPWGQGTLVTVSS
VL: not shown
notes: human IgG1
B4: the binding result in assay [2] is given as “binds”.

B5: CR6307 (antibody, V domains shown)
VH: QVQLVQSGGGLVKPGGSLRLSCAASGFTFSSYSMNWVRQAPGKGLEWVSSISSSSSYIYYVDSVKGRFTISRDNAKNSLYLQMNSLRAEDTAVYYCARGGGSYGAYEGFDYWGQGTLVTVSS
VL: EIVLTQSPGTLSLSPGERATLSCRASQRVSSYLAWYQQKPGQAPRLLIYGASTRAAGIPDRFSGSGSGTDFTLTISRLEPEDSAVYYCQQYGRTPLTFGGGTKVEIKR
notes: human IgG1
For the molecule B5, in assay [1], the binding result is “binds”.
